According to patent US20240067748A1 (NONA BIOSCIENCES SUZHOU, published 2024):

T1: monkey Trop2 protein (Sino Biological, #90893-C08H) (monkey, UniProt A0A2K5UE71 27-274)
T1 construct: bought protein; also called monkey Trop2 protein antigen (His tag)
T1 sequence: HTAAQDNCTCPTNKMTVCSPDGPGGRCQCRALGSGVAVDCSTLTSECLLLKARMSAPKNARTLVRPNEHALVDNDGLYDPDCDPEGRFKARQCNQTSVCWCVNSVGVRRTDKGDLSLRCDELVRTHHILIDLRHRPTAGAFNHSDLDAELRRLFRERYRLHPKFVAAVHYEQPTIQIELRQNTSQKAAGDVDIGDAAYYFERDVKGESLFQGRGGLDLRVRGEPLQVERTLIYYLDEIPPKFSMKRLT

T2: human TROP2 protein (Sino Biological, #10428-H08H) (human, UniProt P09758 27-274)
T2 construct: bought protein; also called human Trop2 protein antigen (His tag); not shown: His tag
T2 sequence (looked up): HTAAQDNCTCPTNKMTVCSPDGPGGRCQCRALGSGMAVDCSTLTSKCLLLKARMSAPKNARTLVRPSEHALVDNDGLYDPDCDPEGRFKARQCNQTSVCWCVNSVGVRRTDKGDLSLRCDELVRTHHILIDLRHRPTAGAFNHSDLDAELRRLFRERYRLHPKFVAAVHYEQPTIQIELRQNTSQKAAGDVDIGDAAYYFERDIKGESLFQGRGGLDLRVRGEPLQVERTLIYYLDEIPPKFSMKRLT

T3: human Trop2 on cells (human, UniProt P09758 27-323)
T3 construct: whole, on cells; also called hTrop2; 293T-human Trop2 cells
T3 sequence (looked up): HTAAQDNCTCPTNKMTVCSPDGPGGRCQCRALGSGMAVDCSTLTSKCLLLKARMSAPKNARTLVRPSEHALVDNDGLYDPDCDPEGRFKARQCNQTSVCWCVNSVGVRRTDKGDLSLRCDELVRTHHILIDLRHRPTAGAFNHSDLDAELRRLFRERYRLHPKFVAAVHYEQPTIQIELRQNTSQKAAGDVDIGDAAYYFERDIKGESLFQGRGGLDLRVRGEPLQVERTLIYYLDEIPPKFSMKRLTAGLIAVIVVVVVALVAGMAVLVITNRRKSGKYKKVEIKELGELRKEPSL


How the values were obtained:
[1] = target: T1, monkey Trop2 protein (Sino Biological, …); assay: BLI, Octet RED96, AHC sensor
Description: (§1) Specifically, a human TROP2 protein (Sino Biological, #10428-H08H) or a monkey Trop2 protein (Sino Biological, #90893-C08H) was diluted to 200 nM with a PBS buffer (pH 7.4) containing 0.1% (w/w) BSA and 0.02% (v/v) tween 20, and incubated with the AHC sensor respectively. 40 nM Trop2 antibody was incubated at 30° C. for 3 min with the AHC sensor loaded with the human Trop2 protein or monkey Trop2 protein respectively. The reaction mixture was incubated at 30° C. for another 5 min in a PBS buffer (pH 7.4) containing 0.1% (v/w) BSA and 0.02% (v/v) Tween 20. The association and dissociation signals between the Trop2 antibody and the human Trop2 protein or monkey Trop2 protein were recorded by Octet Red 96 in real time. The affinity and the association and dissociation constants were determined by Octet using software.

[2] = target: T2, human TROP2 protein (Sino Biological, …); assay: BLI, Octet RED96, AHC sensor
Description: as §1

[3] = target: T3, human Trop2 on cells; assay: flow cytometry on 293T-human Trop2 cells
Description: The cell density was determined, and the cells were resuspended to 1×10⁶ cells/mL in PBS. 100 μL of cell suspension was taken from each well and added to a 96 well V-bottom plate. The 96-well V-bottom plate was centrifuged at 1000 rpm for 5 min and washed once with PBS+0.5% BSA (VWR, #0332-100G). […] After 1 h, the cells were washed twice with PBS+0.5% BSA. The cells were incubated with 100 μL of Alexa Fluor 488 goat anti-human IgG (Life technologies, 1:1000, #A-11013) at 4° C. for 1 h in the dark, and washed twice with PBS+0.5% BSA. The cells were resuspended in 200 μL of PBS+0.5% BSA. The fluorescence intensity of the cells was analyzed using a FACS verse flow cytometer. All procedures were performed on ice.

[4] = target: T1, monkey Trop2 protein (Sino Biological, …); assay: BLI, Octet RED96; ratio against KD for human Trop2 protein
Description: as §1

Binder	Kd [1]	Response [1]	koff [1]	kon [1]	Kd [2]	Response [2]	koff [2]	kon [2]	EC50 [3]	Maximum (MFI) [3]	Top % [3]	KD (monkey)/KD (human) [4]	fold lower KD than the reference antibody Tab (hRS7) [2]
PR001164 (antibody, human IgG1, kappa, V domains shown, fully human IgG1/kappa; also called antibody No. (25)) VH: QVQLQQSGPGLVKPSQTLSLTCAISGDSVSSTSAVWNWIRQSPSRGLEWLGRTCYRSKWYNDYAVSVKSRITITPDTSKNQFSLRLNPVTPEDTAVYYCARGDFRFDSWGQGTLVTVSS VL: DIQLTQSPSFLSASVGDRVTITCRASQGISSYLAWYQQKPGKAPKLLIYAASTLQSGVPSRFSGSGSGTEFTLTISSLQPEDFATYYCQQVKIYPLTFGGGTKVEIKR	2.04 nM	0.173	0.000162 s⁻¹	79400 M⁻¹ s⁻¹	2.41 nM	0.194	0.000262 s⁻¹	109000 M⁻¹ s⁻¹	2.4 nM	8950 MFI	138%	0.85	
PR001163 (antibody, human IgG1, kappa, V domains shown, fully human IgG1/kappa; also called antibody No. (24)) VH: QVQLVESGGDVVQPGRSLRLSCEASGFTFSHYGMHWVRQAPGKGLEWVAVVWYDGIKKYYVESVKGRFTISRDNSKNTLYLQMNRLRAEDTAVYYCARDGGFGELNYYGLDVWGQGTTVTVSS VL: DIQLTQSPSFLSASVGDRVTITCRASQGISSYLGWYQQKPGKAPKLLIYVASTLQSGVPSRFSGSGSGTEFTLTISSLQPEDFATYYCQQLNSYPYTFGQGTKLEIKR	1.96 nM	0.372	0.000134 s⁻¹	68400 M⁻¹ s⁻¹	0.79 nM	0.396	8.34e-05 s⁻¹	106000 M⁻¹ s⁻¹	0.496 nM	5990 MFI	92.4%	2.48	
PR001168 (antibody, human IgG1, kappa, V domains shown, fully human IgG1/kappa; also called antibody No. (28)) VH: QVQLVESGGGVVQPGRSLRLSCATSGFIFSSYGMHWVRQAPGKGLDWVAVIWYDGSNKYYADSVKGRFTISRDNSKNTLYLQMNSLRVEDTAVYYCARETSSWYVGYLQHWGQGTLVTVSS VL: EIVMTQSPATLSVSPGERVSLSCRASQSVNGNVAWYQQKPGQAPRLLIYAASTRATGIPARFSGSGSGTESTLTISSLQSEDCAVYYCQQYNNWPSTFGPGTKLEVTR	2.45 nM	0.311	0.000145 s⁻¹	59300 M⁻¹ s⁻¹	1.59 nM	0.333	0.00014 s⁻¹	88000 M⁻¹ s⁻¹	0.669 nM	6780 MFI	105%	1.54	
PR001145 (antibody, human IgG1, kappa, V domains shown, fully human IgG1/kappa; also called antibody No. (11)) VH: QVQLVESGGGVVQPGRSLRLSCAASGFTFSSFGMQWVRQGPGKGLEWVAIMWFDGSNKYYVDSVKGRFTISRDNSKNTLYLQMNSLRAEDTAVYYCARLDFSGWPLIDYWGQGTLVTVSS VL: not shown	19.1 nM	0.277	0.00134 s⁻¹	70100 M⁻¹ s⁻¹	14.7 nM	0.29	0.00135 s⁻¹	91900 M⁻¹ s⁻¹	0.48 nM	7030 MFI	108%	1.3	
PR001134 (antibody, human IgG1, kappa, V domains shown, fully human IgG1/kappa; also called antibody No. (6)) VH: QVQLVESGGGVVQPGRSLRVSCIASGFFFSSYGMHWVRQAPGKGLEWVAVIWYDGSNEDYVDSVKGRFTISRDNSKNTLYLQMNSLRGEDTAMYYCARGGYNSGWWAFDIWGQGTMVTVSS VL: DIQMTQSPSSLSASVGDRVTITCRASQGISHFLAWYQQKPGKVPKLLIYAASTLQSGVPSRFSGSGSGTDFTLTISSLQPEDVATYYCQKFNSAPLTFGGGTKVEIKR	9.33 nM	0.335	0.000512 s⁻¹	54900 M⁻¹ s⁻¹	5.42 nM	0.354	0.000451 s⁻¹	83100 M⁻¹ s⁻¹	0.653 nM	6040 MFI	93.2%	1.72	
PR001143 (antibody, human IgG1, kappa, V domains shown, fully human IgG1/kappa; also called antibody No. (10)) VH: QVQLVESGGGVVQPGRSLRVSCAASGFIFSTYGMHWVRQAPGKGLEWVAVIWYDGSNEDYVDSVKGRFTISRDNSKNTLYLQMNSLRGEDTAVYYCARGGYNSGWWAFDVWGQGTLVTVSS VL: DIQMTQSPSSLSASVGDRVTITCRASQGISHFLAWYQQKPGKVPKLLIYAASTLQSGVPSRFSGSGSGTDFTLTISSLQPEDVATYYCQKFNSAPLTFGGGTKVEIKR	12.4 nM	0.308	0.000645 s⁻¹	52100 M⁻¹ s⁻¹	6.94 nM	0.335	0.000556 s⁻¹	80100 M⁻¹ s⁻¹	0.795 nM	6300 MFI	97.2%	1.78	

Further lines, results first:

Kd [1]	Response [1]	koff [1]	kon [1]	Kd [2]	Response [2]	koff [2]	kon [2]	EC50 [3]	Maximum (MFI) [3]	Top % [3]	KD (monkey)/KD (human) [4]	fold lower KD than the reference antibody Tab (hRS7) [2]	Binder
1.82 nM	0.36	0.000135 s⁻¹	74300 M⁻¹ s⁻¹	0.819 nM	0.39	9.48e-05 s⁻¹	116000 M⁻¹ s⁻¹	1.22 nM	6710 MFI	104%	2.22		PR001160 (antibody, human IgG1, kappa, V domains shown, fully human IgG1/kappa; also called antibody No. (22)) VH: QVQLVESGGGVVQPGRSLRLSCEASGFTFSHYGMHWVRQAPGKGLEWVAVIWYDGIMKNYIESVKGRFTISRDNSKNTLYLQMNRLRAEDTAVYYCARDGGFGELNYYGLDVWGQGTTVTVSS VL: DIQLTQSPSFLSASVGDRVTITCRASQGISSYLGWYQQKPGKAPKLLIYVASTLQSGVPSRFSGSGSGTEFTLTISSLQPEDFATYYCQQLNSYPYTFGQGTKLEIKR
0.181 nM	0.337	1.07e-05 s⁻¹	59300 M⁻¹ s⁻¹	0.0323 nM	0.381	2.53e-06 s⁻¹	78600 M⁻¹ s⁻¹	2.47 nM	6940 MFI	107%	5.61	~10 fold	PR001153 (antibody, human IgG1, kappa, V domains shown, fully human IgG1/kappa; also called antibody No. (16)) VH: QVQLQESGPGLVKPSGTLSLTCAVSGGSISSSNWWSWVRQPPGKGLEWIGEIYHDGSTDYNPSLKSRVIISVDKSKNQFSLKVRSVTAADTAVYYCARDNWGFDYWGQGTLVTVSS VL: EIVLTQFPGTLSLSPGERATLSCRSSQSVSSSYLAWYQQKPGQAPRLLISGASSRATGIPDRFSGSGSGTDFTLTISRLEPEDFAVYYCQQYGSSPRTFGQGTKVEIKR
1.92 nM	0.341	0.000117 s⁻¹	60900 M⁻¹ s⁻¹	0.498 nM	0.349	4.23e-05 s⁻¹	85000 M⁻¹ s⁻¹	1.31 nM	7420 MFI	115%	3.86		PR001147 (antibody, human IgG1, kappa, V domains shown, fully human IgG1/kappa; also called antibody No. (12)) VH: QVNLVESGGGVVQPGRSLKLSCAASGFTFSSYGMHWVRQAPGKGLEWVAFIWSDGTNRYYPESVKGRFTISRDDSRNTVSLQMNSLRPEDTAVYYCARDGWGTYGEYFQHWGQGTLVTVSS VL: not shown
